Data published in article PMC6454087 (Frontiers in Immunology, 2019).

B1: mouse histone H1a (natural protein, UniProt P43275 1-213, looked up)
chain: MSETAPVAQAASTATEKPAAAKKTKKPAKAAAPRKKPAGPSVSELIVQAVSSSKERSGVSLAALKKSLAAAGYDVEKNNSRIKLGLKSLVNKGTLVQTKGTGAAGSFKLNKKAESKAITTKVSVKAKASGAAKKPKKTAGAAAKKTVKTPKKPKKPAVSKKTSKSPKKPKVVKAKKVAKSPAKAKAVKPKASKAKVTKPKTPAKPKKAAPKKK
notes: mouse histone H1a (H1.1); source: bought: Lifespan Biosciences
B2: mouse WT sNASP (somatic nuclear autoantigenic sperm protein), B6 allele (natural protein)
chain: MATESTAAAAIAAELVSADKIEDAPAPSTSADKMESLDVDSEAKKLLGLGQKHLVMGDIPAAVNAFQEAASLLGKKYGETANECGEAFFFYGKSLLELARMENGVLGNALEGVHVEEEEGEKTEDESLVENNDNVDETEGSEEEDRENDKAEETPNESVLEKKSLQENEEEEIGNLELAWDMLDLAKIIFKRQETKEAQLYAAQAHLKLGEVSVESENYIQAVEEFQACLSLQEQYLEAHDRLLAETHYQLGLAYGYNSQYDEAVAQFGKSIDVIEKRMAVLHEQMKEAEGSFTEYEKEIEELKELLPEIREKIEDAKESQRSGNVAELALKATLVESSTSGFTPSGAGASVSMIASRKPTDGASSSNCVTDISHLVRKKRKPEEESPRKDDAKKAKQEPEVNGGSGDAVSSGKEVSENMEAEAENQAESQTAEGTVESAATIKSTAC
modifications: Somatic isoform of 448 aa = 773-aa tNASP entry lacking 325 residues (internal testis-specific exon). Junction 137/463 set by homology to human sNASP and the printed length, not printed in the paper. …

Columns and labels:
[1] = target: B2; experiment: BLI; Octet K2, 30 C; sNASP WT or variant immobilised on aminopropylsilane (APS) biosensors, histones in assay buffer at various concentrations (62.5 to 1,000 nM shown for H4), association 240 s; n = 4; conditions: both partners purified
mouse histone H4 = mouse histone H4 (mouse, UniProt P62806 1-103); experiment: as above; conditions: both partners purified

Binder	Kd [1]	kon [1]	Kd (mouse histone H4)	kon (mouse histone H4)
B1	387 nM	10100 M⁻¹ s⁻¹		
B2			40.7 nM	1990 M⁻¹ s⁻¹
